This is an account of results in article PMC6056499, “A systematic dissection of sequence elements determining β-Klotho and FGF interaction and signaling” (Scientific Reports, 2018).

Read-outs that look alike come from different tables or passages of the source.

The subject of test [1] is β-Klotho/FGFR complex. Kind of test: Elk1-luciferase reporter assay in HEK293T reporter cells transiently transfected with full-length WT β-Klotho. It counts as cell-based, human. The conditions noted are these: 6 h treatment, mean ± SD of three independent experiments, read-out: EC50, stimulation of Elk1-luciferase reporter activity (KLB WT). The protocol:
(§1) To measure the signaling activity of β-Klotho mutants, ELK luciferase assay was performed in HEK293T cells that were stably transfected with reporter constructs containing 5 × UAS upstream of luciferase and Gal4 DNA-binding domain fused to ELK1. Briefly, HEK293T reporter cells were maintained in DMEM supplemented with 10% (v/v) FBS (Gibco) and 2 mM GlutaMax (Gibco) in a 37 °C incubator with 5% CO2. Cells were plated on 96-well plates in growth medium and incubated overnight. The next day, cells were transfected with expression vectors encoding full-length β-Klotho WT or mutants using the Lipofectamine 2000 transfection reagent (Invitrogen) according to the manufacturer’s protocol. Cells were serum-starved in DMEM supplemented with 5% (v/v) FBS (Gibco) and 2 mM GlutaMax (Gibco) overnight the day after transfection and treated with FGF21 for 6 hours at 37 °C with 5% CO2, after which the cells were lysed in Bright-Glo luciferase reagent (Promega). Luciferase activity was measured in relative luminescence units on the EnVision Multilabel Plate Reader (PerkinElmer) according to the manufacturer’s instructions. All assays were performed in duplicates. EC50 values were determined from a three-parameter logistic regression model with the least squares fit using GraphPad Prism version 7.
In general terms: Reporter assays use an easily measured gene product as a stand-in for the process of interest.

In test [2] the test system is FGFR (expressed endogenously in HEK293T reporter cells). In words: Elk1-luciferase reporter assay in HEK293T reporter cells without β-Klotho (no KLB). The conditions noted are these: d.n.c = did not converge. The test is classed as cell-based, human. As for the experimental part: as §1, with “The next day, cells were transfected with expression vectors encoding full-length β-Klotho WT or mutants using the Lipofectamine 2000 transfection reagent (Invitrogen) according to the manufacturer’s protocol.” left out

Test [3] deals with β-Klotho/FGFR1c. Kind of test: Elk1-luciferase reporter assay in CHO reporter cells stably expressing human β-Klotho and FGFR1c. It counts as cell-based. Particulars: 4 h treatment, three independent experiments in duplicates, read-out: EC50, stimulation of Elk1-luciferase reporter activity. As for the experimental part:
To measure the signaling activity of Fc-FGF21 mutants, ELK luciferase assay was performed in CHO cells stably transfected with human FGFR1c, β-Klotho and the two reporter constructs described above. CHO reporter cells were maintained in DMEM supplemented with 10% (v/v) dialyzed FBS (GE Healthcare Life Sciences), 6 µg/mL puromycin (Sigma) and 400 μg/mL hygromycin (Invitrogen) in a 37 °C incubator with 5% CO2. Cells were plated on 96-well plates in growth medium and incubated overnight. The next day, cells were serum-starved in Ham’s F-12K Nutrient Mixture (Corning) supplemented with 1% (w/v) BSA (Sigma) overnight. Following starvation, Fc-FGF21 protein was added to cells in starvation medium. Plates were incubated for 4 hours at 37 °C with 5% CO2, after which the cells were lysed in Steady-Glo luciferase reagent (Promega). Luciferase activity was measured and analyzed as described above.

B1: FGF21: mature human FGF21 protein, endocrine fibroblast growth factor (protein)
chain: HPIPDSSPLLQFGGQVRQRYLYTDDAQQTEAHLEIREDGTVGGAADQSPESLLQLKALKPGVIQILGVKTSRFLCQRPDGALYGSLHFDPEACSFRELLLEDGYNVYQSEAHGLPLHLPGNKSPHRDPAPRGPARFLPLPGLPPALPEPPGILAPQPPDVGSSDPLSMVGPSQGRSPSYAS
modifications: biotin (EZ-Link Sulfo-NHS-LC-Biotin) in the solid-phase binding assay; biotinylated as the labelled ligand in AlphaScreen
notes: mature human FGF21 protein, endocrine fibroblast growth factor
With B1, the EC50 (commonly the concentration that produces a half-maximal response) in test [1] (Fig 3A) came out at 3.5 ± 1.1 nM; in test [1] (Fig 3D) it was 2.87 ± 1.15 nM; in test [3], 0.57 ± 0.09 nM. The “EC50, stimulation of Elk1-luciferase reporter activity (no KLB)” value in test [2] (Fig 3A, mean ± SD of three independent experiments) is “d.n.c”; in test [2] (Fig 3D) it was “d.n.c”.

B2: Fc-FGF21: mature human FGF21 polypeptide fused with the human Fc fragment at the N-terminus (protein)
chain: B1 chain
modifications: left off: Fc (human), N-terminal, kept
notes: mature human FGF21 polypeptide fused with the human Fc fragment at the N-terminus
For B2, the EC50 in test [3] was found to be 1.85 ± 0.44 nM.
